Source: patent US20090155205A1

Tests used:
[1] = target: recombinant human TNFα (rhTNFα) (human) (UniProt P01375); assay: SPR BIAcore, summary table
[2] = target: recombinant human TNFα (rhTNFα) (human) (UniProt P01375); assay: SPR BIAcore, biotin-rhTNFα immobilized, Ab 6 nM
[3] = target: recombinant human TNFα (rhTNFα) (human) (UniProt P01375); assay: cell-based or functional assay
[4] = target: recombinant human TNFα (rhTNFα) (human) (UniProt P01375); assay: SPR BIAcore, biotin-rhTNFα immobilized, Ab 400 nM
[5] = target: recombinant human TNFα (rhTNFα) (human) (UniProt P01375); assay: SPR BIAcore, biotin-rhTNFα immobilized, Ab 100 nM
[6] = target: recombinant human TNFα (rhTNFα) (human) (UniProt P01375); assay: SPR BIAcore, biotin-rhTNFα immobilized, Ab 3 nM
[7] = target: recombinant human TNFα (rhTNFα) (human) (UniProt P01375); assay: SPR BIAcore, biotin-rhTNFα immobilized, Ab 200 nM
[8] = target: recombinant human TNFα (rhTNFα) (human) (UniProt P01375); assay: SPR BIAcore, biotin-rhTNFα immobilized, Ab 25 nM
[9] = target: recombinant human TNFα (rhTNFα) (human) (UniProt P01375); assay: SPR BIAcore, biotin-rhTNFα immobilized, Ab 50 nM
[10] = target: recombinant human TNFα (rhTNFα) (human) (UniProt P01375); assay: SPR BIAcore, biotin-rhTNFα immobilized, average of the series
[11] = target: recombinant human TNFα (rhTNFα) (human) (UniProt P01375); assay: SPR BIAcore, biotin-rhTNFα immobilized, Ab 13 nM

recombinant human TNFα (rhTNFα) (human), sequence (P01375 77-233 limits assumed): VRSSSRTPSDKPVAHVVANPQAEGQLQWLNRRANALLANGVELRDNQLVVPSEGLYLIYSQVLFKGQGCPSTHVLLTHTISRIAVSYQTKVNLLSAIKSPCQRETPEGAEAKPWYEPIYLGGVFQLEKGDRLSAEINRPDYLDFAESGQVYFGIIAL

- Kd [1]: 0.46 nM
- Stoichiometry [1]: 1.4
- koff [1]: 8.7e-05 s⁻¹
- kon [1]: 190000 M⁻¹ s⁻¹
- Ab, bound, RUs [2]: 433 RUs
- koff [2]: 7.37e-05 s⁻¹
- rhTNFα/Ab [2]: 0.47
- Ab, bound, RUs [4]: 881 RUs
- koff [4]: 5.38e-05 s⁻¹
- rhTNFα/Ab [4]: 1.2
- Ab, bound, RUs [5]: 1140 RUs
- koff [5]: 3.54e-05 s⁻¹
- rhTNFα/Ab [5]: 1.39
- Ab, bound, RUs [6]: 231 RUs
- koff [6]: 6.95e-05 s⁻¹
- rhTNFα/Ab [6]: 0.26
- Ab, bound, RUs [7]: 1080 RUs
- koff [7]: 4.54e-05 s⁻¹
- rhTNFα/Ab [7]: 1.38
- Ab, bound, RUs [8]: 957 RUs
- koff [8]: 4.41e-05 s⁻¹
- rhTNFα/Ab [8]: 1.09
- Ab, bound, RUs [9]: 1110 RUs
- koff [9]: 3.67e-05 s⁻¹
- rhTNFα/Ab [9]: 1.32
- koff [10]: 4.94e-05 s⁻¹
- Ab, bound, RUs [11]: 708 RUs
- koff [11]: 3.66e-05 s⁻¹
- rhTNFα/Ab [11]: 0.78
Substance: MAK 195 F(ab′)2
- IC50, neutralization of TNFα-induced L929 cytotoxicity [3]: 0.062 nM
